Results as given in paper PMC9853002, “Tumor treatment by pHLIP-targeted antigen delivery” (Frontiers in Bioengineering and Biotechnology, 2023).

How the values were obtained:
[1] = pH-dependent interaction of HA-pHLIP agents with POPC liposomes (tryptophan fluorescence); format: physicochemical; conditions: 7 μM agent, 25°C; for cooperativity (n) of state II to state III transition / mid-point (pK) of state II to state III transition: pH-dependent insertion into POPC liposome bilayer, shift of fluorescence maximum vs pH, Henderson-Hasselbalch fit; for cooperativity (n) of state II to state III transition / mid-point (pK) of state II to state III transition / λmax in state III / λmax in state II: 1.4 mM POPC; for λmax in state I / λmax in state III / λmax in state II: position of tryptophan fluorescence maximum, excitation 295 nm; for λmax in state I: HA-pHLIP in solution at pH8; for λmax in state III: HA-pHLIP with POPC liposomes at pH3 (membrane-inserted); for λmax in state II: HA-pHLIP with POPC liposomes at pH8 (membrane-adsorbed)
[2] = test system: murine mammary carcinoma 4T1 cells; test: Treatment with HA-pHLIP agents in 4T1 tumor mouse model; format: in vivo; conditions: 4T1 flank tumors in BALB/c mice immunized with KLH-HA/CFA and KLH-HA/IFA; IP 40–60 µM 400 μl every second day from day 3 or 4; tumors weighed typically days 17–19; mean of control group = 100%
[3] = test system: murine melanoma B16F10 cells; test: Treatment with Gal-pHLIP in B16F10 tumor model in A3galt2 knockout mice; format: in vivo, mouse; conditions: B16F10 tumors in A3galt2 knockout mice immunized with HSA-Gal/CFA and HSA-Gal/IFA; IP 80 μM 450 μl each day for 10 days; tumors weighed day 12; versus untreated control; statistically significant
Experimental: A3galt2 knockout female and male mice were immunized by IP injection of Galα1-3Galβ-4Glc-HSA (HSA-Gal) (Dextra Laboratories) (day 1) (HSA is human serum albumin), at a concentration of 0.2 mg/ml emulsified at a ratio 1:1 with CFA. On days 14 and 21 after the first immunization, mice were boosted by IP injection of 200 μl of HSA-Gal (0.2 mg/ml) emulsified at a ratio 1:1 with IFA.
A3galt2 knockout female and male mice immunized with HSA-Gal and CFA/IFA adjuvants received a single SQ injection of 10^6 murine melanoma B16F10 cells (ATCC CRL-6475) in the right flank on day 1. On day 2, mice were randomized into groups and tri-Gal-pHLIP was administered via IP injections each day (80 μM 450 μl per injection). […] All mice in the control and treated groups were euthanized on day 12, tumors were collected and weighed.
The Kolmogorov-Smirnov two-tailed non-parametric test was used to compare two samples at a significance level of 0.05.

anti-HA antibodies = conditions: mouse, in vivo, ip
[4] = test system: murine melanoma B16F10 cells; conditions: B16F10 flank tumors in BALB/c mice immunized with 2 injections of KLH-HA/AddaVax; IP 40 μM 400 μl on days 1, 2 and 3 from about 100 mm^3; tumors weighed day 7; mean of control group = 100%

Substance	cooperativity (n) of state II to state III transition [1]	mid-point (pK) of state II to state III transition [1]	λmax in state I [1] [nm]	λmax in state III [1] [nm]	λmax in state II [1] [nm]	Norm. tumor weight [2] [%]	reduction of tumor growth [3] [%]	amount of anti-HA antibody in serum after treatment (anti-HA antibodies)	Norm. tumor weight [4] [%]
(Az)GGK[HA-Peg12]GGGKPWRAYLELLFPTETLLLELLLA [HA-Peg12-pHLIP4, v1, single HA-Peg12 on first Lys of pHLIP4]	1.7	6.4	347	337	343				
AK[HA-Peg12]QNDDQNK[HA-Peg12]PWRAYLDLLFPTDTLLLDLLWA [2(HA-Peg12)-pHLIP3]	1.9	4.8	351	337	351	61.3			
(Az)GGKGGGK[HA-Peg12]PWRAYLELLFPTETLLLELLLA [HA-Peg12-pHLIP4, v2, single HA-Peg12 on second Lys of pHLIP4]	2.2	6.8	348	337	343				
(Az)GGK[HA-Peg24]GGGK[HA-Peg24]PWRAYLELLFPTETLLLELLLA [2(HA-Peg24)-pHLIP4]	0.7	5.8	347	336	347				
Galα(1,3)Galβ(1,4)Glc-Peg4-NHC(O)-AADDQNPWRAYLDLLFPTDTLLLDLLWA-OH [Gal-pHLIP]							66		
(Az)GGK[HA-Peg12]GGGK[HA-Peg12]PWRAYLELLFPTETLLLELLLA [2(HA-Peg12)-pHLIP4]	1.3	5.8	347	337	344	55.3			
AK[3xHA-Peg12]QNDDQNK[3xHA-Peg12]PWRAYLDLLFPTDTLLLDLLWA [2(3xHA-Peg12)-pHLIP3]	1.9	4.8	351	337	351	61.6			
K(N3)[HA-Peg12]GGGGGK(N3)[HA-Peg12]PWRAYLELLFPTETLLLELLLA [2(HA-Peg12)-pHLIP5]	0.9	6.2	347	340	346			dropped significantly (close to background level)	56.5
AK[HA-Peg24]QNDDQNK[HA-Peg24]PWRAYLDLLFPTDTLLLDLLWA [2(HA-Peg24)-pHLIP3]	0.9	4.6	351	337	350	62.9			
